From paper PMC8219380, “The discriminatory power of the T cell receptor” (eLife, 2021)

Key:
c-Kit = assay: Discrimination power from published data: c-Kit; details: n 4, ref Ho 2017
From the text: (§1) The broad method was to obtain a measure of ligand potency from each study. […] If not explicitly provided, we estimated ligand potency as PX , which was defined by the concentration of ligand that produced X response. To do this, we drew a horizontal line at X on a provided dose-response graph and estimated the ligand concentration where the data intercepted the horizontal line. The disadvantage with this method is that ligand potency was estimated based on the single representative graph provided in the study.
(§2) Each study often contained or cited a study that contained estimates of KD or koff for the specific TCR/pMHC interactions used in the study. We only included studies where monomeric SPR binding data was available to avoid multimeric binding parameters (e.g. when using tetramers). However, when analysing discrimination by other non-TCR receptors, we included binding data from various methods (e.g. SPR, radio labelled ligands) provided they were monomeric measurements. The use of SPR is important for weak interactions, such as TCR/pMHC, but various methods are available for higher-affinity interactions.
(§3) The plot of potency over KD or k off was fit using linear regression on log-transformed axes. We reported the slope of the fit (i.e. the discrimination power, α), the goodness-of-fit measure ( R^2 ), and the p-value for the null hypothesis that the slope is zero (i.e. α=0 ). […]

IFNAR1 and IFNAR2 = assay: Discrimination power from published data: type I IFN receptor; details: n 13, ref Thomas C. 2011
From the text: as §1, §2, §3

ErbB2 = assay: Discrimination power from published data: ErbB2 CARs; details: n 4, ref Liu 2015
From the text: as §1, §2, §3

M3 muscarinic receptor = assay: Discrimination power from published data: M3 receptor; details: n 7, ref Sykes 2009
From the text: as §1, §2, §3

IL-13Ra1 = assay: Discrimination power from published data: IL-13 receptor; details: ref Moraga 2015
From the text: as §1, §2
(§4) The plot of potency over KD or k off was fit using linear regression on log-transformed axes. We reported the slope of the fit (i.e. the discrimination power, α), the goodness-of-fit measure ( R^2 ), and the p-value for the null hypothesis that the slope is zero (i.e. α=0 ). We defined significance using the threshold of p=0.05.
Cytokine receptors transduce signals by ligand-induced dimerisation of receptor subunits. We identified five studies that produced ligands with mutations that modified binding to either one or both receptor subunits and either reported potency or provided dose-response curves from which potency can be extracted ([Levin et al., 2012]; [Moraga et al., 2015]; [Thomas et al., 2011a]; [Mendoza et al., 2017]; [Martinez-Fabregas et al., 2019]). […] By measuring cellular responses, such as upregulation of CD86 on monocytes, dose-response curves were generated for each IL-13 variant, allowing us to determine ligand potency. We observed a significant correlation between potency and KD (Figure 6A). We repeated the analysis for each study (Figure 6—source data 1 ID 1–13). In studies that included ligands with mutations to both receptor interfaces, we plotted potency over the product of the dissociation constants to each interface since this serves as an estimate of the overall affinity (i.e. KD1×KD2 ).

gp130 = assay: Discrimination power from published data: IL-6 receptor; details: ns, ref Martinez-Fabregas 2019
From the text: as §1, §2, §3

CXC chemokine receptor 3 = assay: Discrimination power from published data: CXCR3; details: ref Heise 2005
From the text: as §1, §2, §4
Therefore, ligand affinity may not correlate to functional potency. Instead, we focused on identifying studies that used ligands that were confirmed to bind to the same interface with different affinities. As an example, Sykes et al. used seven agonists to the muscarinic M3 receptor and confirmed they all bound to the same interface using a binding competition assay ([Sykes et al., 2009]). Using titrations of each ligand, they examined the binding of GTPγS to CHO-M3 membrane as a measure of response (Figure 6C, left). […]

c-Kit: receptor tyrosine kinase activated by SCF
Power (discrimination power) (c-Kit; ID 15, output pERK): 0.834
Power (discrimination power) (c-Kit; ID 16, output pAKT): 0.882

IFNAR1/IFNAR2
Power (discrimination power) (IFNAR1 and IFNAR2; ID 7, output antiviral): 0.7137
Power (discrimination power) (IFNAR1 and IFNAR2; ID 8, output antiproliferation): 1.329

ErB2
Power (discrimination power) (ErbB2; ID 26, output CD107): 1.058
Power (discrimination power) (ErbB2; ID 27, output Proliferation, ns): 0.6409

M3 muscarinic receptor: M3 muscarinic receptor, set of agonists
Power (discrimination power) (M3 muscarinic receptor; ID 19, output Calcium, ns): 0.7717
Power (discrimination power) (M3 muscarinic receptor; ID 20, output GTPyS Binding): 0.5478

B1: IL-13Rα2 (protein, UniProt Q14627 27-380, looked up)
Interleukin-13 receptor …: DTEIKVNPPQDFEIVDPGYLGYLYLQWQPPLSLDHFKECTVEYELKYRNIGSETWKTIITKNLHYKDGFDLNKGIEAKIHTLLPWQCTNGSEVQSSWAETTYWISPQGIPETKVQDMDCVYYNWQYLLCSWKPGIGVLLDTNYNLFYWYEGLDHALQCVDYIKADGQNIGCRFPYLEASDYKDFYICVNGSSENKPIRSSYFTFQLQNIVKPLPPVYLTFTRESSCEIKLKWSIPLGPIPARCFDYEIEIREDDTTLVTATVENETYTLKTTNETRQLCFVVRSKVNIYCSDDGIWSEWSDKQCWEGEDLSKKTLLRFWLPFGFILILVIFVTGLLLRKPNTYPKMIPEFFCDT
Power (discrimination power) (IL-13Ra1; ID 4, output Proliferation, n 9, ns): 0.394
Power (discrimination power) (IL-13Ra1; ID 5, output CD86): 0.442

B2: gp130 (and IL6R alpha) (protein, UniProt P40189 23-918; P08887 20-468, looked up)
Interleukin-6 receptor … 1: ELLDPCGYISPESPVVQLHSNFTAVCVLKEKCMDYFHVNANYIVWKTNHFTIPKEQYTIINRTASSVTFTDIASLNIQLTCNILTFGQLEQNVYGITIISGLPPEKPKNLSCIVNEGKKMRCEWDGGRETHLETNFTLKSEWATHKFADCKAKRDTPTSCTVDYSTVYFVNIEVWVEAENALGKVTSDHINFDPVYKVKPNPPHNLSVINSEELSSILKLTWTNPSIKSVIILKYNIQYRTKDASTWSQIPPEDTASTRSSFTVQDLKPFTEYVFRIRCMKEDGKGYWSDWSEEASGITYEDRPSKAPSFWYKIDPSHTQGYRTVQLVWKTLPPFEANGKILDYEVTLTRWKSHLQNYTVNATKLTVNLTNDRYLATLTVRNLVGKSDAAVLTIPACDFQATHPVMDLKAFPKDNMLWVEWTTPRESVKKYILEWCVLSDKAPCITDWQQEDGTVHRTYLRGNLAESKCYLITVTPVYADGPGSPESIKAYLKQAPPSKGPTVRTKKVGKNEAVLEWDQLPVDVQNGFIRNYTIFYRTIIGNETAVNVDSSHTEYTLSSLTSDTLYMVRMAAYTDEGGKDGPEFTFTTPKFAQGEIEAIVVPVCLAFLLTTLLGVLFCFNKRDLIKKHIWPNVPDPSKSHIAQWSPHTPPRHNFNSKDQMYSDGNFTDVSVVEIEANDKKPFPEDLKSLDLFKKEKINTEGHSSGIGGSSCMSSSRPSISSSDENESSQNTSSTVQYSTVVHSGYRHQVPSVQVFSRSESTQPLLDSEERPEDLQLVDHVDGGDGILPRQQYFKQNCSQHESSPDISHFERSKQVSSVNEEDFVRLKQQISDHISQSCGSGQMKMFQEVSAADAFGPGTEGQVERFETVGMEAATDEGMPKSYLPQTVRQGGYMPQ
Interleukin-6 receptor … 2: LAPRRCPAQEVARGVLTSLPGDSVTLTCPGVEPEDNATVHWVLRKPAAGSHPSRWAGMGRRLLLRSVQLHDSGNYSCYRAGRPAGTVHLLVDVPPEEPQLSCFRKSPLSNVVCEWGPRSTPSLTTKAVLLVRKFQNSPAEDFQEPCQYSQESQKFSCQLAVPEGDSSFYIVSMCVASSVGSKFSKTQTFQGCGILQPDPPANITVTAVARNPRWLSVTWQDPHSWNSSFYRLRFELRYRAERSKTFTTWMVKDLQHHCVIHDAWSGLRHVVQLRAQEEFGQGEWSEWSPEAMGTPWTESRSPPAENEVSTPMQALTTNKDDDNILFRDSANATSLPVQDSSSVPLPTFLVAGGSLAFGTLLCIAIVLRFKKTWKLRALKEGKTSMHPPYSLGQLVPERPRPTPVLVPLISPPVSPSSLGSDNTSSHNRPDARDPRSPYDISNTDYFFPR
Power (discrimination power) (gp130; ID 12, output pSTAT1, n 3): 0.5438
Power (discrimination power) (gp130; ID 13, output pSTAT3, n 4): 0.5194

B3: CXC chemokine receptor 3: CXCR3 with chemokine ligands (protein, UniProt P49682 1-368, looked up)
C-X-C chemokine receptor type …: MVLEVSDHQVLNDAEVAALLENFSSSYDYGENESDSCCTSPPCPQDFSLNFDRAFLPALYSLLFLLGLLGNGAVAAVLLSRRTALSSTDTFLLHLAVADTLLVLTLPLWAVDAAVQWVFGSGLCKVAGALFNINFYAGALLLACISFDRYLNIVHATQLYRRGPPARVTLTCLAVWGLCLLFALPDFIFLSAHHDERLNATHCQYNFPQVGRTALRVLQLVAGFLLPLLVMAYCYAHILAVLLVSRGQRRLRAMRLVVVVVVAFALCWTPYHLVVLVDILMDLGALARNCGRESRVDVAKSVTSGLGYMHCCLNPLLYAFVGVKFRERMWMLLLRLGCPNQRGLQRQPSSSRRDSSWSETSEASYSGL
Power (discrimination power) (CXC chemokine receptor 3; ID 22, output Calcium mobilization, n 3): 0.7346
Power (discrimination power) (CXC chemokine receptor 3; ID 23, output GTP gamma S Binding, n 3): 1.056
Power (discrimination power) (CXC chemokine receptor 3; ID 24, output Migrated Cells, n 2, ns, Perfect line): 0.5609

B4: IL-13Rα1 (protein, UniProt P78552 22-427, looked up)
Interleukin-13 receptor …: GGGGAAPTETQPPVTNLSVSVENLCTVIWTWNPPEGASSNCSLWYFSHFGDKQDKKIAPETRRSIEVPLNERICLQVGSQCSTNESEKPSILVEKCISPPEGDPESAVTELQCIWHNLSYMKCSWLPGRNTSPDTNYTLYYWHRSLEKIHQCENIFREGQYFGCSFDLTKVKDSSFEQHSVQIMVKDNAGKIKPSFNIVPLTSRVKPDPPHIKNLSFHNDDLYVQWENPQNFISRCLFYEVEVNNSQTETHNVFYVQEAKCENPEFERNVENTSCFMVPGVLPDTLNTVRIRVKTNKLCYEDDKLWSNWSQEMSIGKKRNSTLYITMLLIVPVIVAGAIIVLLLYLKRLKIIIFPPIPDPGKIFKEMFGDQNDDTLHWKKYDIYEKQTKEETDSVVLIENLKKASQ
Power (discrimination power) (IL-13Ra1; ID 3, output pSTAT6, n 9): 0.471
Power (discrimination power) (IL-13Ra1; ID 6, output CD205, n 9): 0.421
